This note sets out measurements from article PMC5811407 (Thrombosis research, 2017).

Test [1] has as its target soluble form of human VLDL receptor (human) (UniProt P98155). Kind of test: SPR.
Test [2] concerns the target recombinant fibrinogen (Bβ1-66)2 fragment (human). The experiment in a line: ELISA. For orientation: ELISA stands for enzyme-linked immunosorbent assay.
The target in test [3] is recombinant fibrin (β15-66)2 fragment (human). The experiment in a line: ELISA.
The target in test [4] is human fibrin (human) (UniProt P02679). Kind of test: ELISA.
Test [5] concerns the target soluble form of human VLDL receptor (human, UniProt P98155 28-797). Kind of test: ELISA.

As to “recombinant fibrinogen (Bβ1-66)2 fragment (domain or fragment)”, the Kd in test [1] was determined as 254 nM.
As to “soluble form of human VLDL receptor (from UniProt P98155 28-797)”, the results for the dissociation constant Kd in test [2], in test [3] and in test [4] were 7.7 nM, 5.9 nM and 7.2 nM, respectively.

B1: human receptor-associated protein (natural protein, UniProt P30533 35-357, looked up)
chain: YSREKNQPKPSPKRESGEEFRMEKLNQLWEKAQRLHLPPVRLAELHADLKIQERDELAWKKLKLDGLDEDGEKEARLIRNLNVILAKYGLDGKKDARQVTSNSLSGTQEDGLDDPRLEKLWHKAKTSGKFSGEELDKLWREFLHHKEKVHEYNVLLETLSRTEEIHENVISPSDLSDIKGSVLHSRHTELKEKLRSINQGLDRLRRVSHQGYSTEAEFEEPRVIDLWDLAQSANLTDKELEAFREELKHFEAKIEKHNHYQKQLEIAHEKLRHAESVGDGERVSRSREKHALLEGRTKELGYTVKKHLQDLSGRISRARHNEL
For the molecule B1, the binding result in test [5] was “binds”.

By Kd is commonly meant the free concentration of one partner at which half of the binding sites on the other are occupied at equilibrium, for simple one-to-one binding.
